Measurements published in the DeepSol protein solubility set.

assay: soluble on expression in E. coli; label from the status in PepcDB or PDB records

Sequence	soluble on expression in E. coli
MAAGFGRCCRVLRSISRFHWRSQHTKANRQREPGLGFSFEFTEQQKEFQATARKFAREEIIPVAAEYDKTGEYPVPLIRRAWELGLMNTHIPENCGGLGLGTFDACLISEELAYGCTGVQTAIEGNSLGQMPIIIAGNDQQKKKYLGRMTEEPLMCAYCVTEPGAGSDVAGIKTKAEKKGDEYIINGQKMWITNGGKANWYFLLARSDPDPKAPANKAFTGFIVEADTPGIQIGRKELNMGQRCSDTRGIVFEDVKVPKENVLIGDGAGFKVAMGAFDKTRPVVAAGAVGLAQRALDEATKYALERKTFGKLLVEHQAISFMLAEMAMKVELARMSYQRAAWEVDSGRRNTYYASIAKAFAGDIANQLATDAVQILGGNGFNTEYPVEKLMRDAKIYQIYEGTSQIQRLIVAREHIDKYKN	soluble
AESSADKFKRQHMDTEGPSKSSPTYCNQMMKRQGMTKGSCKPVNTFVHEPLEDVQAICSQGQVTCKNGRNNCHKSSSTLRITDCRLKGSSKYPNCDYTTTDSQKHIIIACDGNPYVPVHFDASV	soluble
MSLRTSASLAGSLAYGMADFLGRSEHLSIIDMIVPRMRQDNVETVVGMFDGQPSSTGGSRVAKFLHENFLHTFSAELKRLRRDEQETPLDAFRRTFLTLNRNMAFACYKSIDQDVRLFQEDSSDQKKVRLNKEDLQSGGVATVLYLNNTDLYAANIGDAQAILVKSDGSMRYLTRNHDPAEAGERARIRAAGGFVSRNGRLNDYLPVSRSFGYFNLMPAVIAAPHTMHVSLTEQDEMIILASKELWDYVTPDLVVDVTRAERRDLMVAAQKIRDLALSFGANNKLMVMILGVGDLREGHHHHHH	soluble
MDVKPDRVIDARGSYCPGPLMELIKAYKQAKVGEVISVYSTDAGTKKDAPAWIQKSGQELVGVFDRNGYYEIVMKKVK	soluble
MAQSLPPGDIDFQPRKIVFNAPYNEKQVFQIKLINTSALRIAFGINTYMRKLRVDTLCTPRCGVLDPNEHILLAVSCSAFAFGQVDTTNDRITVEWTNTPEGSDKQFCREWLEGEGMVRRKIILIEYNSTPIAPKPTTSSKPLLQATKLGMWLPIGFAASELYDYEKGVPLDRETCEKNLEKLIKNDRDVDYYEWLNLAQQCRTENHKLMEQMALGMAFTSAMANKQHKKVSRKADKDKITGAIVQNKMFSIETAEIWDRVLTLPNRKWFQISDVVTDGEVSNWSSANLVTHVRALARSVFDKVDEADPHMMCYATSQNACIYVPIDKDFFDGFAEYLIGGFGQEQSRDLKLQVRKLVTEVMGNKLNRVRARYNKMYGKDASEEAAKWMREELDKKDGELKECQLIFSKGSKSSYAIEVHGEEEEDLVKSEVLSGDEDVEME	not soluble
METLSDVFATFSQRGDTTAFVHRTGVRRYVFTYLDLHALSLRMNRWLADQGVGEGDRVVLWGPNSPWWAVAFWGIVTRGAVAVPVDFMSGAERAEIIAGLTDAKLVIQSRDKLDRLTGRPSVLLEELGFLLEAVEPLATTHRPAPDDMAELIYTSGTTGNPKGVILTHRNLVANILQVNRHIPVVTPDFSFLSLLPLSHMFEQMGGFFTPLYRGAAIVYIRTLKPSAIMEALGEEDIYAIIAVPRLLQLLKGSVERELEAKGLGSIFRWLLKVGERMSRGGRSVLFRPIQRKFGRNFALFVSGGAPLDPEVFRFWNGLGFRVVEGYGLTECSPVLTANTMERQVMGSVGTPLDGVELRLEEGEILARGDNIFPGYFRNEEATRGAFVDGWFRTGDLGELDPDGWLRIKGRSKELIVTGAGVNVYPDEIEAILNRTQGVREGCVIGLDRGKGEEVHGVLILDGSGRPTEEIVNEVNAKFDELHRITSFSVWPEAEFPKTTTLKIRKFQVKERIEQGGGALGDGRGADRLTALVATITGSPLEQVTEGALLVNDLGLTSIARLELVNALEMEFRLDLEDSVIGPQTRVADLREIVSRREKVHIREHFRIWAMGGVALAVRRLLDTVLHGPLLRAFVTLKSLGIENLEAADGPVMFVSNHLSYLDQPAIMCVLPDAWRYNTATAAWEEFFFRNFKNLPQRLWKRFTYEYASVAFTVFPLPQSRGFRGALHFMGTLADQGMNILLFPEGERSRDGRLLPFQQGLGVMIRELGVPVVPVRIRGLEKVLPRGASWPQKGEVSITFGKPIHFRGESPTEIVDRARRAVEDLLEHHHHHH	not soluble
FPTPKPVPAPQQAAQQQAVTASAEAALAPATPITVTTDTVQAVIDEKSGDLRRLTLLKYKATGDENKPFILFGDGKEYTYVAQSELLDAQGNNILKGIGFSAPKKQYSLEGDKVEVRLSAPETRGLKIDKVYTFTKGSYLVNVRFDIANGSGQTANLSADYRIVRDHSEPEGQGYFTHSYVGPVVYTPEGNFQKVSFSDLDDDAKSGKSEAEYIRKTPTGWLGMIEHHFMSTWILQPKGRQSVCAAGECNIDIKRRNDKLYSTSVSVPLAAIQNGAKAEASINLYAGPQTTSVIANIADNLQLAKDYGKVHWFASPLFWLLNQLHNIIGN	not soluble
MKFRGNFVCQPRAGPAESRPTRPFTPRPSATGSLFMSNQHFVSPDLIRQGFSRAMSDMYREEVPLYGALMELVAEVNAQVLERQPALARHLQSSGELQRLDLERHGAIRVGSAAELATLARLFAVMGMQPVGYYDLTPAGVPVHSTAFRAVHEAALQVSPFRVFTSLLRLELIDNPELRSFAEQVLARRQIFTPQVLELIQQAEAAGGLDAEDAERFIRQALETFRWHHHATVTAAQYASLSAQHRLIADVVAFKGPHINHLTPRTLDIDEVQRLMPARGITPKAVIEGPPRRECPILLRQTSFKALEESVAFTDQAQSQGSHSARFGEIEQRGAALTPKGRELYDRLLNAARDALGDFPNEANAQRYNQLMQEHFREFPDSHPAMREQGLAYFRYFVSETGLAARNQPQRPTTLAALLAAGHLSAEPLVYEDFLPVSAAGIFQSNLGDDSQSHYAGQSNRQAFEAALGRPTLDELQLYAQTQQRSLEHCAATLGLPALLEHHHHHH	not soluble
MSLNNTKQPVVILVGPTAVGKTNLSIQLAKSLNAEIISGDSMQIYKGMDIGTAKITEQEMEGVPHHLIDILDPQDSFSTADYQSLVRNKISEIANRGKLPMIDGGTGLYIQSELYDYTFTEEANDPVFRESMQMAAEREGADFLHAKLAAADPEAAAAIHPNNTRRVIRALEILHTSGKTMSQHLKEQKRELLYNAVLIGLTMDRDTLYERINQRVDLMMQSGLLPEVKRLYDKNVRDCQSIQAIGYKELYAYFDGFVTLSDAVEQLKQNSRRYAKRQLTWFRNKMQVTWFDMTPPVDMELKKKEIFTHIAGKLELEGHHHHHH	soluble
MSYPLFDKDEHWHKPEQAFLTDDHRTILRFAVEALMSGKGAVLVTLVEIRGGAARPLGAQMVVREDGRYCGFVSGGCVEAAAAFEALEMMGSGRDREIRYGEGSPWFDIVLPCGGGITLTLHKLRSAQPLLAVLNRLEQRKPVGLRYDPQAQSLVCLPTQTRTGWNLNGFEVGFRPCVRLMIYGRSLEAQATASLAAATGYDSHIFDLFPASASAQIDTDTAVILLCHDLNRELPVLQAAREAKPFYLGALGSYRTHTLRLQKLHELGWSREETTQIRAPVGIFPKARDAHTLALSVLAEVASVRLHQEEDSCLPPSS	not soluble
MLLSKKSEYKTLSTVEHPQYIVFCDFDETYFPHTIDEQKQQDIYELEDYLEQKSKDGELIIGWVTGSSIESILDKMGRGKFRYFPHFIASDLGTEITYFSEHNFGQQDNKWNSRINEGFSKEKVEKLVKQLHENHNILLNPQTQLGKSRYKHNFYYQEQDEINDKKNLLAIEKICEEYGVSVNINRCNPLAGDPEDSYDVDFIPIGTGKNEIVTFMLEKYNLNTERAIAFGDSGNDVRMLQTVGNGYLLKNATQEAKNLHNLITDSEYSKGITNTLKKLIGFMRRKLEHHHHHH	soluble
MSLYSNESAIQLISLARSIDQLQKIDSVVSFHDGAQLDALTIANALELPFSLSMGAIVNTRDKQLSRRILREKNLTEVQSAIAENEQDLHDFFKIYPQVNKVIVKPVAGTGSENVRSLESKELETANLDNVYPVLVEQFVEGREFSVEAFMQEGKCHIFAITEKFKDAQSFIETGHLVPARLSSDEHEKIAAFIAKVLPALGVVSGITHSEIMLGEKIELIETHTRVGGDRIFDLVQMTTGIDMYRLQALQSLGLPIGEDELTPKLNGKHACIKFKLNDHPGKKVIRVNGEEEIKNWSGVEDVSITHQAGEVLPQIVNSFDRSASVLVLCDSSEQALSIAEEAIQKLEFVVGEGHHHHHH	not soluble
MGSDKIHHHHHHMAYPNGKLSEEKVFKDPVHRYVHVRDKLIWDLIGTREFQRLRRIKQLGTTYLTFHGAEHSRFNHSLGVYEIVRRMVDDVFKGRPEWDDSERELCLAAALLHDLGHGPFSHSFEKVFHLDHEDFTRGIILGDTEVNQVLRKVSPGFPQDVAEVIAKTYKNKQVVSLISSQIDADRMDYLQRDAYYTGVSYGHFDMERILRVMRPREDQIVIKESGMHAVEDYIMSRYQMYWQVYFHPVTRSAEVILTKILHRAKQLHDEGYVFTHAPVHFYSIFEGKLTLEDYVKLDESIILYYFQAWEDEEDAILSDLCRRFINRQLFQYVEFNPNEEMSAYFELTSLFKEAGIDPSYYLVVDSSSDLPYDFYRPGEEEERLPIHLLTQNGQIKELSRQSAIVESISGKRRTDHKLYYPKDLICDGTKHPEAKMKIRQLLGLT	not soluble
MTPTHPTVTELLLPLSEIDDRGVYFEDSFTSWRDHIRHGAAIAAALRERLDPARPPHVGVLLQNTPFFSATLVAGALSGIVPVGLNPVRRGAALAGDIAKADCQLVLTGSGSAEVPADVEHINVDSPEWTDEVAAHRDTEVRFRSADLADLFMLIFTSGTSGDPKAVKCSHRKVAIAGVTITQRFSLGRDDVCYVSMPLFHSNAVLVGWAVAAACQGSMALRRKFSASQFLADVRRYGATYANYVGKPLSYVLATPELPDDADNPLRAVYGNEGVPGDIDRFGRRFGCVVMDGFGSTEGGVAITRTLDTPAGALGPLPGGIQIVDPDTGEPCPTGVVGELVNTAGPGGFEGYYNDEAAEAERMAGGVYHSGDLAYRDDAGYAYFAGRLGDWMRVDGENLGTAPIERVLMRYPDATEVAVYPVPDPVVGDQVMAALVLAPGTKFDADKFRAFLTEQPDLGHKQWPSYVRVSAGLPRTMTFKVIKRQLSAEGVACADPVWPIRR	soluble
GMGQRSDSDHVMAEATTDKRQGHTRGRTGNDRRTQIIKVATELFREKGYYATSLDDIADRIGFTKPAIYYYFKSKEDVLFAIVNSIVDEALERFHAIAAGPGSPGERIHALLVEHTRTILRNLDANTLFYNERGLLSPEREREMRKREREYTEIMQRLYAEGVATGELLDVDPTVATATLLGAAIWTYRWYDPEGRLSADEVVEQITRLLLNGYRRPA	soluble
MGSDKIHHHHHHMTTYRTVSIDGLDIFYREAGSRNNPTILLLHGFPTSSHMFRNLIPALADKFHLVAPDYPGYGNSSMPTVNEFDYTFDNLAEIVEKFIAAIALKKYSLYVMDYGAPIGYRIAAKYPERVQSLIVQNGNAYEEGLREFWEPIKAYWQERSPENAEKLKYLVTLEATKWQYTNGVRNLEAISPDTWTMDQHFLDRPGNDEIQLALLYSYGTNPLLYPQWQEYFRNYQPPTLIVWGKNDYIFPADGAYPYQRDLKDVEFHLLDTGHFALEEDGDAIANYIDQFLTSRLQSIPV	not soluble
MYEPLHRDAEQKDTAPHDPISILLLGIDERPGDKGRPDSMIVMTVNPKTKKTTMTSIPRDTRVFIKSKNKFSKMNSAYTYGGIEGTVETVEQFLNIPINYYIKINMDGFKDIVDAIGGVTVDNRIDFTLEGVHLSKGKQHLDGKTALTYARMRKDDPRGDFGRQERQREIINEIIHEGAQLKSLTNYQEILAALEKNIKTNLTLDKMIDIQSSYKEAAKDIKQVEIEGEDKKVDSLWYHLVTDEKRMEISKKLRQQLDLKSLEHHHHHH	soluble
NSYVFDLPHNQHKLTKFAHKGILFNSVHLERDGTLKFPQLKQSKQKPAVSSELKTAIKRIKAGYKKVKPNYKKRQKQQIAELFAKRKQRRSWKNF	not soluble
